The values that follow come from US7026443.

Read-outs that look alike come from different tables or passages of the source.

In experiment [1] the target is HLA-A*0301 (human).
Experiment [2] addresses HLA-A*1101 (human).
Experiment [3] addresses HLA-A*0301 (human). This is another data set of the same source.
The target in experiment [4] is HLA-A*1101 (human). This is another data set of the same source.
The target in experiment [5] is HLA-A*0301 (human). In words: competition with 125I-labeled standard peptide for purified HLA, gel filtration.
In experiment [6] the target is HLA-A*1101 (human). Described as above.
The target of experiment [7] is HLA-A*2402 (human).
Experiment [8] addresses HLA-A*2402 (human). This is another data set of the same source.
The target of experiment [9] is HLA-A*1101 (human). In words: competition with 125I-labelled standard peptide for purified HLA-A*1101, gel filtration.
The mark [10] stands for this setting: remark: other sources report otherwise.

Take FMSFLTALK (modifications not checked) [HPV16 E1 peptide … (position 453, 9 amino acids)]: the binding affinity ratio (IC50 of standard peptide / IC50 of test peptide) in [1] was 0.13; in experiment [2], 0.21. Also, the binding affinity ratio relative to the standard peptide (IC50 standard / IC50 test) in experiment [3] was 0.13. Turning to LLIRCLRCQK (modifications not checked) [HPV45 E6 peptide … (position 101, 10 amino acids)], the results for the relative binding ratio (IC50 of standard peptide / IC50 of test peptide) (ratio to standard peptide) in experiment [1], in experiment [2] and in experiment [4] were 0.047, 0.12 and 0.12, respectively. Further, in experiment [3], the binding affinity ratio (IC50 of standard peptide / IC50 of test peptide) was 0.047.

Regarding IAQLKDLLK (modifications not checked) [HPV18 E1 position 198 peptide …], the results for the binding affinity ratio (IC50 of standard peptide / IC50 of test peptide) in experiment [4], in experiment [5] and in experiment [6] were 0.0027, 0.0003 and 0.0027, respectively.

Take SVAALYWYR (modifications not checked) [HPV45 E1 peptide … (position 308, 9 amino acids)]: the relative binding ratio (IC50 of standard peptide / IC50 of test peptide) stood at 2.9 in experiment [1] and 8.8 in experiment [2]. With FYSRIREL (modifications not checked) [FYSRIREL (HPV18 E6, position 71, 8 amino acids)], in experiment [7], the relative binding ratio (IC50 of standard peptide / IC50 of test peptide) was found to be 0.026. Turning to LYNLLIRCL (modifications not checked) [HPV18 E6 98-106 peptide …], in experiment [8], the relative binding ratio (IC50 of standard peptide / IC50 of test peptide) (ratio to standard peptide) came to 0.0001. On to FYSRIREL (modifications not checked) [HPV45 E6 71 peptide FYSRIREL (SEQ ID NO: 15714)], for which the relative binding ratio (IC50 of standard peptide / IC50 of test peptide) in [8] worked out at 0.026. MLIQPPKLR (modifications not checked) [HPV18 E1 position 312 peptide …]: the binding affinity ratio (IC50 of standard peptide / IC50 of test peptide) stood at 0.0005 in experiment [1] and 0.0014 in experiment [2].

For SVAALYWYR (modifications not checked) [HPV18 E1 position 322 peptide …], the binding affinity ratio (IC50 of standard peptide / IC50 of test peptide) in experiment [1] stood at 2.9; in experiment [2], 8.8. Consider FYSRIRELRHY (modifications not checked) [HPV18 E6 71-81 peptide …], for which the relative binding ratio (IC50 of standard peptide / IC50 of test peptide) (ratio to standard peptide) in experiment [8] was 0.0052.

Take NSNAAAFLK (modifications not checked) [HPV18 E1 position 393 peptide …]: the values for the binding affinity ratio (IC50 of standard peptide / IC50 of test peptide) in [1] and in [2] were 0.0057 and 0.37, respectively. Regarding VFEFAFKDLF (modifications not checked) [… (HPV18 E6, position 44, 10 amino acids)], the relative binding ratio (IC50 of standard peptide / IC50 of test peptide) in experiment [7] was found to be 0.036. For the molecule KLPDLCTEL (modifications not checked) [HPV18 E6 13-21 peptide …], the relative binding ratio (IC50 of standard peptide / IC50 of test peptide) (ratio to standard peptide) in experiment [8] (setting [10]) came to 0.0013. FLKSNSQAK (modifications not checked) [HPV33 E1 385 peptide … (A03 supermotif peptide, 9 amino acids)]: the relative binding ratio (IC50 of standard peptide / IC50 of test peptide) in [1] was 0.0013. Consider LLVRYKCGK (modifications not checked) [HPV16 E1 peptide … (position 277, 9 amino acids)], for which the results for the binding affinity ratio (IC50 of standard peptide / IC50 of test peptide) in experiment [1] and in [2] were 0.0043 and 0.0033, respectively. For the molecule ALLRYKCGK (modifications not checked) [HPV45 E1 peptide … (position 270, 9 amino acids)], the relative binding ratio (IC50 of standard peptide / IC50 of test peptide) in experiment [1] is 0.09; in experiment [2], 0.14; in experiment [4], 0.14. As for FLKSNSQAK (modifications not checked) [HPV31 E1 peptide … (position 372, 9 amino acids)], the relative binding ratio (IC50 of standard peptide / IC50 of test peptide) (ratio to standard peptide) in experiment [1] came to 0.0013. As to ISLNSGQKK (modifications not checked) [HPV18 E1 position 116 peptide …], the binding affinity ratio (IC50 of standard peptide / IC50 of test peptide) in experiment [5] was 0.0003; in experiment [6], 0.0026; in experiment [9] it was 0.0026. Take LYNLLIRCL (modifications not checked) [HPV45 E6 98 peptide … (SEQ ID NO: 15730)]: the relative binding ratio (IC50 of standard peptide / IC50 of test peptide) in [8] was found to be 0.0001. As for FYSRIREL (modifications not checked) [HPV45 E6 position 71 peptide FYSRIREL (SEQ ID NO: 46116)], in [7], the binding affinity ratio (IC50 of standard peptide / IC50 of test peptide) is 0.026. Consider VYCKTVLEL (modifications not checked) [… (HPV18 E6, position 33, 9 amino acids)], for which the relative binding ratio (IC50 of standard peptide / IC50 of test peptide) in [7] was determined as 0.022. Regarding DFAFRDLCI (modifications not checked) [HPV16 E6 51 …], the binding affinity ratio (IC50 of standard peptide / IC50 of test peptide) in experiment [8] turned out to be 0.0003. Also, in [7], the relative binding ratio (IC50 of standard peptide / IC50 of test peptide) (ratio to standard peptide) was 0.0003. Consider LIRCLRCQK (modifications not checked) [HPV45 E6 peptide … (position 102, 9 amino acids)], for which the relative binding ratio (IC50 of standard peptide / IC50 of test peptide) (ratio to standard peptide) turned out to be 0.019 in experiment [1], 0.0012 in experiment [2] and 0.0012 in experiment [4]. Besides, the binding affinity ratio (IC50 of standard peptide / IC50 of test peptide) in [3] was 0.019.

In the case of PYKLPDLCTEL (modifications not checked) [HPV45 E6 11 peptide … (SEQ ID NO: 15737)], the relative binding ratio (IC50 of standard peptide / IC50 of test peptide) in experiment [8] was determined as 0.0064.

Turning to PYKLPDLCTEL (modifications not checked) [HPV45 E6 position 11 peptide … (SEQ ID NO: 46119)], the binding affinity ratio (IC50 of standard peptide / IC50 of test peptide) in experiment [7] amounted to 0.0064. In the case of PYAVCDKCL (modifications not checked) [HPV16 E6 66 …], the relative binding ratio (IC50 of standard peptide / IC50 of test peptide) in experiment [8] came to 0.0078. Further, the relative binding ratio (IC50 of standard peptide / IC50 of test peptide) (ratio to standard peptide) in experiment [7] came out at 0.0078.

On to PYKLPDLCTEL (modifications not checked) [… (HPV18 E6, position 11, 11 amino acids)], for which the relative binding ratio (IC50 of standard peptide / IC50 of test peptide) in [7] was 0.0064. Consider VYRDGNPY (modifications not checked) [HPV16 E6 60 VYRDGNPY], for which the relative binding ratio (IC50 of standard peptide / IC50 of test peptide) in experiment [8] worked out at 0.0001.

Take GVSFSELVR (modifications not checked) [HPV16 E1 peptide … (position 216, 9 amino acids)]: the results for the binding affinity ratio (IC50 of standard peptide / IC50 of test peptide) in [1] and in [2] were 0.0011 and 0.018, respectively. Consider FYSRIREL (modifications not checked) [HPV18 E6 71-78 peptide FYSRIREL], for which the relative binding ratio (IC50 of standard peptide / IC50 of test peptide) (ratio to standard peptide) in experiment [8] came out at 0.026. Take CYSLYGTTL (modifications not checked) [HPV16 E6 87 …]: the binding affinity ratio (IC50 of standard peptide / IC50 of test peptide) in [8] came out at 0.046. In addition, the relative binding ratio (IC50 of standard peptide / IC50 of test peptide) (ratio to standard peptide) in [7] turned out to be 0.046.

In the case of CIDFYSRIR (modifications not checked) [HPV45 E6 peptide … (position 68, 9 amino acids)], the relative binding ratio (IC50 of standard peptide / IC50 of test peptide) (ratio to standard peptide) in experiment [1], in experiment [2] and in [4] was 0.0001 each time. In addition, the binding affinity ratio (IC50 of standard peptide / IC50 of test peptide) in experiment [3] stood at 0.001. In the case of GVLILALLR (modifications not checked) [HPV18 E1 position 279 peptide …], the binding affinity ratio (IC50 of standard peptide / IC50 of test peptide) is 0.0058 in [5], 0.14 in experiment [6] and 0.14 in experiment [9]. As for NSNAAAFLK (modifications not checked) [HPV33 E1 379 peptide … (SEQ ID NO: 10558)], the results for the binding affinity ratio (IC50 of standard peptide / IC50 of test peptide) (ratio relative to standard peptide) in experiment [1] and in experiment [2] were 0.0057 and 0.37, respectively. In the case of QMNMSQWIR (modifications not checked) [HPV18 E1 position 426 peptide …], the binding affinity ratio (IC50 of standard peptide / IC50 of test peptide) in experiment [1] amounted to 0.0011; in experiment [2] it was 0.0023. On to LYNLLIRCL (modifications not checked) [HPV45 E6 position 98 peptide … (SEQ ID NO: 46118)], for which the binding affinity ratio (IC50 of standard peptide / IC50 of test peptide) in experiment [7] came to 0.0001. In the case of LVRNFKSDK (modifications not checked) [HPV18 E1 position 229 peptide …], the values for the binding affinity ratio (IC50 of standard peptide / IC50 of test peptide) in experiment [1] and in experiment [2] were 0.0005 and 0.0002, respectively. As for ALFTAQEAK (modifications not checked) [HPV16 E1 peptide … (position 69, 9 amino acids)], the figures for the binding affinity ratio (IC50 of standard peptide / IC50 of test peptide) in experiment [1] and in [2] were 0.24 and 0.4, respectively. Besides, the relative binding ratio (IC50 of standard peptide / IC50 of test peptide) (ratio to standard peptide) in experiment [3] came out at 0.24. NMSQWIRFR (modifications not checked) [HPV18 E1 position 428 peptide …]: the binding affinity ratio (IC50 of standard peptide / IC50 of test peptide) in experiment [1] was determined as 0.054; in experiment [2], 0.0012. Consider KLPDLCTEL (modifications not checked) [HPV45 E6 13 peptide … (SEQ ID NO: 15726)], for which the relative binding ratio (IC50 of standard peptide / IC50 of test peptide) in experiment [8] (setting [10]) turned out to be 0.0013.

ATMCRHYKR (modifications not checked) [HPV16 E1 peptide … (position 406, 9 amino acids)]: the binding affinity ratio (IC50 of standard peptide / IC50 of test peptide) in [1] was 0.066; in [2], 1.5. The relative binding ratio (IC50 of standard peptide / IC50 of test peptide) (ratio to standard peptide) in experiment [3] was determined as 0.066. Turning to LYNLLIRCL (modifications not checked) [… (HPV18 E6, position 98, 9 amino acids)], the relative binding ratio (IC50 of standard peptide / IC50 of test peptide) in experiment [7] stood at 0.0001.
